How the values were obtained:
[1] = target: T1, hemoglobin (Hb), human, cell-free (human, UniProt P69905 1-142; P68871 1-147); test: SPR
[2] = target: T1, hemoglobin (Hb), human, cell-free; test: SPR; remark: listed apart in the source

T1 sequence (P69905 whole entry, chain 1 of 2): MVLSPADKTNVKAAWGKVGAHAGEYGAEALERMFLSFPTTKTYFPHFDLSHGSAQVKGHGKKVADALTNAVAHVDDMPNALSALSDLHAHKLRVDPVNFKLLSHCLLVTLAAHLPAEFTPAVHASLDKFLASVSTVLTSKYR
T1 sequence (P68871 whole entry, chain 2 of 2): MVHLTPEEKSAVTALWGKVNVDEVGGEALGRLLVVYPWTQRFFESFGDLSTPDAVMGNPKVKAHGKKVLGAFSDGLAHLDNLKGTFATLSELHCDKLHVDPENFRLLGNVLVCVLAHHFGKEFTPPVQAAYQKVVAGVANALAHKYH

B1: recombinant haptoglobin Hp1F, C1r-LP processed (natural protein)
chain 1: VDSGNDVTDIADDGCPKPPEIAHGYVEHSVRYQCKNYYKLRTEGDGVYTLNDKKQWINKAVGDKLPECEAVCGKPKNPANPVQ
chain 2: ILGGHLDAKGSFPWQAKMVSHHNLTTGATLINEQWLLTTAKNLFLNHSENATAKDIAPTLTLYVGKKQLVEIEKVVLHPNYSQVDIGLIKLKQKVSVNERVMPICLPSKDYAEVGRVGYVSGWGRNANFKFTDHLKYVMLPVADQDQCIRHYEGSTVPEKKTPKSPVGVQPILNEHTFCAGMSKYQEDTCYGDAGSAFAVHDLEEDTWYATGILSFDKSCAVAEYGVYVKVTSIQDWVQKTIAEN
modifications: Hp1F built from the first (F) repeat of Hp2FS (mature Asp52/Lys53 = precursor D70/K71); C1r-LP cleaves after R161 (Arg omitted from alpha chain per UniProt convention); alpha-beta and inter-alpha disulfides; N-glycosylated; C-terminal 8xHis tag omitted
**Q.** Which results are given for B1?
**A.** Kd [1]: < 42 pM; koff [2]: < 5e-05 s⁻¹

From paper PMC5856381 (2018)
